# From paper PMC3507621
# B1: wild type recombinant N-terminal region of PTX3 (N_PTX3) [human] / mouse TSG-6 (tumor necrosis factor-induced protein 6) [mouse] (parent)
# chain 1: WGFKNGIFHNSIWLEQAAGVYHREARAGRYKLTYAEAKAVCEFEGGRLATYKQLEAARKIGFHVCAAGWMAKGRVGYPIVKPGPNCGFGKTGIIDYGIRLNRSERWDAYCYNPHAKECGGVFTDPKRIFKSPGFPNEYDDNQVCYWHIRLKYGQRIHLSFLDFDLEHDPGCLADYVEIYDSYDDVHGFVGRYCGDELPEDIISTGNVMTLKFLSDASVTAGGFQIKYVTVDPASKSSQAKNTSTTGNKKFLPGRFSHL
# chain 2: ENSDDYDLMYVNLDNEIDNGLHPTEDPTPCACGQEHSEWDKLFIMLENSQMRERMLLQATDDVLRGELQRLREELGRLAESLARPCAPGAPAEARLTSALDELLQATRDAGRRLARMEGAEAQRPEEAGRALAAVLEELRQTRADLHAVQGWATG
# B2: wild type recombinant N-terminal region of PTX3 (N_PTX3) [human] / mouse TSG-6 (tumor necrosis factor-induced protein 6) [mouse] (parent)
# chain 1: B1 chain 2
# chain 2: B1 chain 1
# Assays:
# [1] = variants of: B1; experiment: ELISA; details: with mouse TSG-6 (tumor necrosis factor-induced protein 6) [mouse], pH 7.4, PBS with Ca2+ and Mg2+, read off a plot
# [2] = variants of: B2; experiment: competition ELISA (bPTX3 detected with HRP-conjugated streptavidin); details: with mouse TSG-6 (tumor necrosis factor-induced protein 6) [mouse], wells coated with TSG-6, read off a plot
# [3] = TSG-6 about 0.38 nM (est. from x axis), parent: 0.29
# [4] = TSG-6 about 1.6 nM (est. from x axis), parent: 0.91
# [5] = TSG-6 about 6.2 nM (est. from x axis), parent: 1.7
# [6] = TSG-6 about 26 nM (est. from x axis), parent: 2.2
# [7] = TSG-6 about 100 nM (est. from x axis), parent: 2.3
Variant,"response [1, 3]","response [1, 4]","response [1, 5]","response [1, 6]","response [1, 7]","screen value ([2]; competitor about 0.24 nM (est. from x axis), parent: 99)","screen value ([2]; competitor about 1.2 nM (est. from x axis), parent: 90)","screen value ([2]; competitor about 12 nM (est. from x axis), parent: 82)","screen value ([2]; competitor about 120 nM (est. from x axis), parent: 58)","screen value ([2]; competitor about 1200 nM (est. from x axis), parent: 17)"
chain 2 C30S C32S C86S,0.31 O.D. (450nm),0.91 O.D. (450nm),1.7 O.D. (450nm),2.2 O.D. (450nm),2.2 O.D. (450nm),–,–,–,–,–
chain 2 C86S,0.3 O.D. (450nm),0.91 O.D. (450nm),1.6 O.D. (450nm),2.2 O.D. (450nm),2.3 O.D. (450nm),–,–,–,–,–
chain 2 C30S C32S,0.14 O.D. (450nm),0.5 O.D. (450nm),1.1 O.D. (450nm),1.9 O.D. (450nm),2.2 O.D. (450nm),–,–,–,–,–
chain 1 C30S C32S C86S,–,–,–,–,–,97%,93%,84%,64%,29%
